Measured values as given in article PMC2756588.

T1: Hof1, Q05080
T1 sequence (Q05080 590-669, looked up): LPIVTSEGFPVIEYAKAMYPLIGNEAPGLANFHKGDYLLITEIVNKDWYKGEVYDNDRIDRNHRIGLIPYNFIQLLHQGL

T2: Bbc1, P47068
T2 sequence (P47068 1-78, looked up): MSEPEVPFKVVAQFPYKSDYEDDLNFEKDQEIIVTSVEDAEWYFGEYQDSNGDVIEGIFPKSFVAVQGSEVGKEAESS

T3: Boi2, P39969
T3 sequence (P39969 32-116, looked up): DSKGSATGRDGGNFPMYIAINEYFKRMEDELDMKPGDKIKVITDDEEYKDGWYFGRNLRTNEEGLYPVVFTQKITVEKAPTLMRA

T4: Pin3, Q06449
T4 sequence (Q06449 53-122, looked up): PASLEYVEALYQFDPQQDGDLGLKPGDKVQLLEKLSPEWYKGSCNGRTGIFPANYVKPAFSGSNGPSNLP

T5: Lsb3, P43603
T5 sequence (P43603 385-451, looked up): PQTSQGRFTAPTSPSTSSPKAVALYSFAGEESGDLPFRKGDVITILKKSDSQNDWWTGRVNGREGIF

T6: Pex13, P80667
T6 sequence (P80667 295-386, looked up): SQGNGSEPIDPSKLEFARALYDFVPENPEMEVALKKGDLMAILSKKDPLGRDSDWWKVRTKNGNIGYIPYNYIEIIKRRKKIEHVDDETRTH

T7: Nbp2, Q12163
T7 sequence (Q12163 103-180, looked up): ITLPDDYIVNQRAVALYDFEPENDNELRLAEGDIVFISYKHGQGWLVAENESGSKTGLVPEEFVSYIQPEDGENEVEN

T8: Bzz1-2, P38822
T8 sequence (P38822 568-633, looked up): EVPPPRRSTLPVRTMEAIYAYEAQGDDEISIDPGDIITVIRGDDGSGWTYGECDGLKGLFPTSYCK

T9: Cdc25, P04821
T9 sequence (P04821 50-136, looked up): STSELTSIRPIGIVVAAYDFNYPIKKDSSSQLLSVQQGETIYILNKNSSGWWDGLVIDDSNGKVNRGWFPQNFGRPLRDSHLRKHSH

T10: Lsb4, P32793
T10 sequence (P32793 402-468, looked up): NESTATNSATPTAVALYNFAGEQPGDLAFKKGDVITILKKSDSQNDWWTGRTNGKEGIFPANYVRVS

T11: Boi1, P38041
T11 sequence (P38041 1-86, looked up): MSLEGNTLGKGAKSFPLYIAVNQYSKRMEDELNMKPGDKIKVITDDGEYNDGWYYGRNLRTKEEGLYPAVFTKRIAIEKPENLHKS

T12: Bzz1-1, P38822
T12 sequence (P38822 478-572, looked up): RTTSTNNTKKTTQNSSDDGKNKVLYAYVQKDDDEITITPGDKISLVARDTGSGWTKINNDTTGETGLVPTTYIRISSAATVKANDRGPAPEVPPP

T13: Hse1, P38753
T13 sequence (P38753 208-285, looked up): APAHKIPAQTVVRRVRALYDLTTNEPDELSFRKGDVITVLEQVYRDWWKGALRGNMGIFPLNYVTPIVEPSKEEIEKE

T14: Myo5, Q04439
T14 sequence (Q04439 1072-1160, looked up): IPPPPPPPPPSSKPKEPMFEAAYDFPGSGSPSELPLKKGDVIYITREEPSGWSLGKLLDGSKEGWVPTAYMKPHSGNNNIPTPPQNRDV

T15: Fus1, P11710
T15 sequence (P11710 432-512, looked up): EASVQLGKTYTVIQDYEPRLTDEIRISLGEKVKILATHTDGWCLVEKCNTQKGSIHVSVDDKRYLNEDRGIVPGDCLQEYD

T16: Sla1-2, P32790
T16 sequence (P32790 60-140, looked up): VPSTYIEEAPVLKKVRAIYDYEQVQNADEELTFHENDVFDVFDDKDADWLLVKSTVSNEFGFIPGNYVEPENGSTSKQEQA

T17: Cyk3, Q07533
T17 sequence (Q07533 1-83, looked up): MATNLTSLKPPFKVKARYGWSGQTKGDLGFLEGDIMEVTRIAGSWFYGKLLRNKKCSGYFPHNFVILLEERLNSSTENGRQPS

T18: Abp1, P15891
T18 sequence (P15891 535-592, looked up): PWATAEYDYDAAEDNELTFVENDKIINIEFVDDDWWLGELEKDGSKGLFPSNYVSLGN

T19: Sla1-3, P32790
T19 sequence (P32790 344-424, looked up): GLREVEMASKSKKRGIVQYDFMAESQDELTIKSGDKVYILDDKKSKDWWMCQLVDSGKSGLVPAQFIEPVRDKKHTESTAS

T20: Lsb1, P53281
T20 sequence (P53281 45-122, looked up): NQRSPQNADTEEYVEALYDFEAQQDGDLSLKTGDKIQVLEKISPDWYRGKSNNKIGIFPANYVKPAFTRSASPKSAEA

T21: Bud14, P27637
T21 sequence (P27637 247-328, looked up): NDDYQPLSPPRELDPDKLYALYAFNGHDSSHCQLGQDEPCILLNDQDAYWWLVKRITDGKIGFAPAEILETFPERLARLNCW


Tests used:
Assay in all cases: SPOT array
[1] = target: T1, Hof1, Q05080; conditions: median of control spots 4086
[2] = target: T2, Bbc1, P47068; conditions: median of control spots 796
[3] = target: GST; conditions: median of control spots 978
[4] = target: T3, Boi2, P39969; conditions: median of control spots 1161
[5] = target: T4, Pin3, Q06449; conditions: median of control spots 2171
[6] = target: T5, Lsb3, P43603; conditions: median of control spots 406
[7] = target: T6, Pex13, P80667; conditions: median of control spots 1341
[8] = target: Sho1, P40073; conditions: median of control spots 1148
[9] = target: T7, Nbp2, Q12163; conditions: median of control spots 357
[10] = target: T8, Bzz1-2, P38822; conditions: median of control spots 4538
[11] = target: T9, Cdc25, P04821; conditions: median of control spots 969
[12] = target: T10, Lsb4, P32793; conditions: median of control spots 397
[13] = target: T11, Boi1, P38041; conditions: median of control spots 1162
[14] = target: Bem1-2, P29366; conditions: median of control spots 4347
[15] = target: Rvs167, P39743; conditions: median of control spots 2707
[16] = target: T12, Bzz1-1, P38822; conditions: median of control spots 4446
[17] = target: T13, Hse1, P38753; conditions: median of control spots 1727
[18] = target: T14, Myo5, Q04439; conditions: median of control spots 471
[19] = target: T15, Fus1, P11710; conditions: median of control spots 1200
[20] = target: Myo3, P36006; conditions: median of control spots 468
[21] = target: T16, Sla1-2, P32790; conditions: median of control spots 712
[22] = target: T17, Cyk3, Q07533; conditions: median of control spots 1451
[23] = target: Bem1-1, P29366; conditions: median of control spots 4282
[24] = target: T18, Abp1, P15891; conditions: median of control spots 935
[25] = target: T19, Sla1-3, P32790; conditions: median of control spots 5475
[26] = target: T20, Lsb1, P53281; conditions: median of control spots 388
[27] = target: T21, Bud14, P27637; conditions: median of control spots 956

Sho1, P40073, sequence (P40073 287-367): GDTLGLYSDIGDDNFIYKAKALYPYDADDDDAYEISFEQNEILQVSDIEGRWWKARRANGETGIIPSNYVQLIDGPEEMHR
Bem1-1, P29366, sequence (P29366 55-141): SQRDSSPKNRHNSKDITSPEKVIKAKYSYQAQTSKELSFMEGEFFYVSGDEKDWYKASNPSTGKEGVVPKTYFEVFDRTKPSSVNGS
Bem1-2, P29366, sequence (P29366 139-227): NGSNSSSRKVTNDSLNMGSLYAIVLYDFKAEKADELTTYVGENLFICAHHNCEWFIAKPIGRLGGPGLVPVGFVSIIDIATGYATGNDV
Rvs167, P39743, sequence (P39743 419-482): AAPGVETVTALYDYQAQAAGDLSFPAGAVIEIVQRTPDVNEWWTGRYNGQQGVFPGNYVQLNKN

| Binder | SPOT intensity [1] | SPOT intensity [2] | SPOT intensity [3] | SPOT intensity [4] | SPOT intensity [5] | SPOT intensity [6] | SPOT intensity [7] | SPOT intensity [8] | SPOT intensity [9] | SPOT intensity [10] | SPOT intensity [11] | SPOT intensity [12] | SPOT intensity [13] | SPOT intensity [14] | SPOT intensity [15] | SPOT intensity [16] | SPOT intensity [17] | SPOT intensity [18] | SPOT intensity [19] | SPOT intensity [20] | further results |
| --- | --- | --- | --- | --- | --- | --- | --- | --- | --- | --- | --- | --- | --- | --- | --- | --- | --- | --- | --- | --- | --- |
| KKEKKPPKIPKKVYT | 4 | 0 | 3 | 3 | 1 | 0 | 0 | 16 | 0 | 18 | 3 | 0 | 0 | 4 | 0 | 0 | 12 | 0 | 3 | 0 | SPOT intensity [21]: 0; SPOT intensity [22]: 1; SPOT intensity [23]: 1; SPOT intensity [24]: 161; SPOT intensity [25]: 12; SPOT intensity [26]: 0; SPOT intensity [27]: 0 |
| AATTSTPPLPRRRAT | 5 | 103 | 1 | 2 | 35 | 877 | 364 | 38 | 0 | 0 | 4 | 1360 | 0 | 0 | 2280 | 0 | 2 | 0 | 0 | 31 | SPOT intensity [21]: 0; SPOT intensity [22]: 1; SPOT intensity [23]: 0; SPOT intensity [24]: 109; SPOT intensity [25]: 0; SPOT intensity [26]: 243; SPOT intensity [27]: 1 |
| NLKKRPPTAPQRKIS | 28 | 31 | 2 | 0 | 7 | 45 | 13 | 229 | 48 | 324 | 203 | 141 | 15 | 51 | 18 | 22 | 157 | 3 | 8 | 20 | SPOT intensity [21]: 3; SPOT intensity [22]: 2; SPOT intensity [23]: 0; SPOT intensity [24]: 564; SPOT intensity [25]: 161; SPOT intensity [26]: 8; SPOT intensity [27]: 25 |
| AAHKTKPSIPPKKVE | 0 | 0 | 0 | 1 | 0 | 0 | 2 | 4 | 0 | 0 | 0 | 0 | 0 | 0 | 0 | 0 | 0 | 0 | 1 | 0 | SPOT intensity [21]: 0; SPOT intensity [22]: 0; SPOT intensity [23]: 0; SPOT intensity [24]: 239; SPOT intensity [25]: 0; SPOT intensity [26]: 0; SPOT intensity [27]: 0 |
